Consider four molecules from patent US20170240883A1, “CYCLIC PEPTIDES EXPRESSED BY A GENETIC PACKAGE” (Miti Biosystems GmbH, priority 2014, published 2017).

For series [1], the target named is T1, Human Plasma Kallikrein (Homo sapiens, UniProt P03952).
T1 construct: purchased Molecular Innovations, Inc, USA
As to the kind of experiment: Phage selection of ProcM-modified SynLib1 library on biotinylated kallikrein (output titre). In kind it is binding. The note with it: 24 clones from R3 6.25 nM kallikrein output. How it is done:
(§1) Human Plasma Kallikrein (Molecular Innovations, Inc, USA) at 1.15 mg/ml (13 μM) solution in 4 mM acetate, 150 mM NaCl, pH 5.3 was biotinylated using NHS-PEG4-Biotin from the EZ-link micro-PEO4-biotinylation kit (Pierce Biotechnology, USA). 680 μl of water was added to the contents of the pre-weighed vial of biotinylation reagent to make a 5 mM solution. 1 μl of this solution was added to 100 μl of the kallikrein solution. This was incubated at RT for 1 hour prior to the separation of the biotinylated protein from the unreacted biotin, using a 2 ml Spin Desalting column (Pierce Biotechnology, USA). The volume of the kallikrein was made up to 350 μl with PBS (Formedium Ltd, UK) and was loaded onto the spin column which had been equilibrated with PBS (as per the manufacturer's instructions). When this solution had been absorbed into the column matrix, a further 50 μl of PBS was added on top and the column was spun in a centrifuge at 1000 g for 2 min. 395 μl of solution was collected, making the concentration of the biotinylated kallikrein about 3.25 μM.
150 μl of stock SynLib1 library (2.5e11 phage per μl) was added to 1850 μl of TE buffer, 2 μl 1 M TCEP (Melford Biolaboratories Ltd, UK) and incubated at RT for 20 minutes to reduce the peptides on the phage. […]

The target of series [2] is T2, substrate peptide NH2-KPTTVKPPSDFEEWTINVC-COOH.
T2 chain: KPTTVKPPSDFEEWTINVC

Series [3] deals with T1, Human Plasma Kallikrein. As to the kind of experiment: Phage selection of leader-free SynLib1 library modified by Celf ProcM enzyme-leader fusions on biotinylated kallikrein (output titre). In kind it is binding. How it is done:
as §1
150 μl of stock leader-free SynLib1 library (4.5e11 phage per μl) was added to 1850 μl of TE buffer, 2 μl 1 M TCEP (Melford Biolaboratories Ltd, UK) and incubated at RT for 20 minutes to reduce the peptides on the phage. 400 μl of 2.5 M NaCl, 20% w/v PEG 8000 was added, incubated at RT for five minutes and the precipitated phages were collected by centrifugation at 15000 g for five minutes. The supernatant was discarded and the phages were resuspended in 150 μl of 25 mM Tris pH 7.5 (Sigma Aldrich, Austria), 1 μM TCEP.
Selections are performed by removing streptavidin-binding clones by pre-exposing the library to streptavidin resin, which is then discarded, mixing the library with decreasing concentrations of biotinylated target for an hour at each round of selection, capture of the biotinylated target and thereby any phage binding the target with magnetic streptavidin resin followed by extensive washing of the resin. Finally, the washed resin has the phage eluted from the target by exposure to a low pH solution, neutralisation of the solution and infection of E. coli by the eluted phage.
Round 1 (R1) of the selection was performed by adding 50 μl of LodeStars streptavidin resin (Agilent Technologies, USA), from which the liquid had been removed by magnetic capture, to the modified phage solution for 30 minutes to capture the peptide sequence that bind to streptavidin (deselection). The resin was captured magnetically and the phage-containing supernatant was collected and made up to 500 μl with 25 mM Tris pH 7.5, 0.05% Tween 20 (Melford Biolaboratories Ltd, UK). Biotinylated kallikrein was added to 100 nM, and mixed at RT for 1 hour prior to processing on a KingFisher mL (Thermo Fisher, Austria) magnetic particle washer. The processing involved the KingFisher transferring 25 μl of streptavidin resin to the phage solution and mixing for five minutes. The resin/phage were then collected and washed in 8×1 ml of PBS+0.05% Tween 20 (PBST). The resin was then mixed in 50 μl of 50 mM glycine pH 2.2 (Melford Biolaboratories Ltd, UK) for five minutes to elute the phage and the resin was removed. The phage-containing supernatant was neutralised with 10 μl of 1 M Tris pH 8.0 and added to 1 ml of TG1 cells at A600 of 0.6 followed by incubation at 37° C., 250 rpm for 1 hour. The phage titre was determination by adding 4 μl of culture to 96 μl of water, which was used to make five, 10-fold dilutions; 10 μl from each of these was spotted onto an LB+tetracycline agar plate. The remainder of the culture was made up to 11 ml with 2TY plus tetracycline and incubated at 37° C., 250 rpm overnight.
10 ml of overnight culture was reduced with 10 μl of 1 M TCEP for 20 min at RT followed by removal of the cells by centrifugation at 15000 g for five minutes. […]

T1 sequence (P03952 20-638): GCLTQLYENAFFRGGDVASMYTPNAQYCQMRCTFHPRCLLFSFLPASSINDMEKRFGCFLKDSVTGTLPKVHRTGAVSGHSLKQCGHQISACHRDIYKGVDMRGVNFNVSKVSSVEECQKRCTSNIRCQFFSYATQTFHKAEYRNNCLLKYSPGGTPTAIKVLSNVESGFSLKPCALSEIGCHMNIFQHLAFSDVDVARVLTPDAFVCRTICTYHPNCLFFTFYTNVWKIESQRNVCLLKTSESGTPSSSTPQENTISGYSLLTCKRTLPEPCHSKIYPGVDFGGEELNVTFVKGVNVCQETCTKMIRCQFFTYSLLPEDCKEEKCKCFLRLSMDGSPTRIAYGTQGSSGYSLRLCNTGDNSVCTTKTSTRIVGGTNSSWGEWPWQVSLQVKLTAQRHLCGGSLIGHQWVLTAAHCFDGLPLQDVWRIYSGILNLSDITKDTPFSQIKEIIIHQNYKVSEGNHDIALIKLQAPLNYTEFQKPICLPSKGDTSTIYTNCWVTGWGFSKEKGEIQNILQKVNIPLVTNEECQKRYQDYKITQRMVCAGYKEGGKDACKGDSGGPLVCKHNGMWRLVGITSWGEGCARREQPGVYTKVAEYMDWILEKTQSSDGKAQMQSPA

For the molecule AACKGPSPTPNNC [clone 24], the “share of the clones that were sequenced” value with Human Plasma Kallikrein [1] stood at 12.5%.

B1: Celf5ProcM (ProcM - 5-residue linker - C-terminal ProcA4.3 leader enzyme-leader fusion) (protein)
chain: MSEEQLKAFIAKVQADTSLQEQLKAEGADVVAIAKAAGFTITTEDLNSHRQNLTDDELEGVAGGSASGSGSGSAMESPSSWKTSWLAAIAPDEPHKFDRRLEWDELSEENFFAALNSEPASLEEDDPCFEEALQDALEALKAAWDLPLLPVDNNLNRPFVDVWWPIRCHSAESLRQSFVSDSAGLADEIFDQLADSLLDRLCALGDQVLWEAFNKERTPGTMLLAHLGAAGDGSGPPVREHYERFIQSHRRNGLAPLLKEFPVLGRLIGTVLSLWFQGSVEMLQRICADRTVLQQCFAIPCGHHLKTVKQGLSDPHRGGRAVAVLEFADPNSTANSSMHVVYKPKDMAVDAAYQATLADLNTHSDLSPLRTLAIHNGNGYGYMEHVVHHLCANDKELTNFYFNAGRLTALLHLLGCTDCHHENLIACGDQLLLIDTETLLEADLPDHISDASSTTAQPKPSSLQKQFQRSVLRSGLLPQWMFLGESKLAIDISALGMSPPNKPERIALGWLGFNSDGMMPGRVSQPVEIPTSLPVGIGEVNPFDRFLEDFCDGFSMQSEALIKLRNRWLDVNGVLAHFAGLPRRIVLRATRVYFTIQRQQLEPTALRSPLAQALKLEQLTRSFLLAESKPLHWPIFAAEVKQMQHLDIPFFTHLIDADALQLGGLEQELPGFIQTSGLAAAYERLRNLDTDEIAFQLRLIRGAVEARELHTTPESSPTLPPPATPEALMSSSAETSLEAAKRIAHRLLELAIRDSQGQVEWLGMDLGADGESFSFGPVGLSLYGGSIGIAHLLQRLQAQQVSLMDADAIQTAILQPLVGLVDQPSDDGRRRWWRDQPLGLSGCGGTLLALTLQGEQAMANSLLAAALPRFIEADQQLDLIGGCAGLIGSLVQLGTESALQLALRAGDHLIAQQNEEGAWSSSSSQPGLLGFSHGTAGYAAALAHLHAFSADERYRTAAAAALAYERARFNKDAGNWPDYRSIGRDSDSDEPSFMASWCHGAPGIALGRACLWGTALWDEECTKEIGIGLQTTAAVSSVSTDHLCCGSLGLMVLLEMLSAGPWPIDNQLRSHCQDVAFQYRLQALQRCSAEPIKLRCFGTKEGLLVLPGFFTGLSGMGLALLEDDPSRAVVSQLISAGLWPTESASGSGSGSAMSEEQLKAFIAKVQADTSLQEQLKAEGADVVAIAKAAGFTITTEDLNSHRQNLTDDELEGVAGG
On to B1, for which the “dehydration of the peptide, LC-ESI mass spectrometry” value in series [2] is on record as “one portion of the used peptide P2 was found showing triple dehydration with a m/z value of 1069.022”.

B2: NelfMvdDGS10 (N-terminal MvdE leader - 10-residue linker - MvdD enzyme-leader fusion) (protein)
chain: MSKNVKVSAPKAVPFFARFLAEQAVEANNSNSAPSASGSGSGSGSTSGSGSGSAMTVLIFTFSNDNESIPLVVKAIEAKGEKAFRFDTDRFPTEVKLDIYSGDFEGGIVTDGEHKLDLSEVSSVWYRRMRYGAKLPDSMDQQFREASLKECRLTVRGLIASLPGFHFDPMINVDRANNKQLQLQIARQLGLLTPRTLTSNNPEAVKQFAQDCKEQGIVTKMLSQFAIYGENKEENVVFTSPVTDDDLDNLEGLSFCPMTFQENVPKALELRTIIVGKQVFTAAINSQQLDGATYDWRKEGRALHEKWQAYNLPEDIEKKLLQLTAYFGLNYGAIDIIVTPDGRHVFLEINPVGEFFWLELFAPYFPISQAIAEILLTPTNQKPF
For B2, in series [2], the “dehydration of the peptide, LC-ESI mass spectrometry” value was “one portion of the used peptide P2 was found showing triple dehydration with a m/z value of 1069.022”.

B3: CelfProcM15: C-terminal leaderA4.3 ProcM enzyme-leader fusion, 15-pair linker, used to modify leader-free SynLib1 (protein)
chain: MSEEQLKAFIAKVQADTSLQEQLKAEGADVVAIAKAAGFTITTEDLNSHRQNLTDDELEGVAGGSASGSGSGSAMESPSSWKTSWLAAIAPDEPHKFDRRLEWDELSEENFFAALNSEPASLEEDDPCFEEALQDALEALKAAWDLPLLPVDNNLNRPFVDVWWPIRCHSAESLRQSFVSDSAGLADEIFDQLADSLLDRLCALGDQVLWEAFNKERTPGTMLLAHLGAAGDGSGPPVREHYERFIQSHRRNGLAPLLKEFPVLGRLIGTVLSLWFQGSVEMLQRICADRTVLQQCFAIPCGHHLKTVKQGLSDPHRGGRAVAVLEFADPNSTANSSMHVVYKPKDMAVDAAYQATLADLNTHSDLSPLRTLAIHNGNGYGYMEHVVHHLCANDKELTNFYFNAGRLTALLHLLGCTDCHHENLIACGDQLLLIDTETLLEADLPDHISDASSTTAQPKPSSLQKQFQRSVLRSGLLPQWMFLGESKLAIDISALGMSPPNKPERIALGWLGFNSDGMMPGRVSQPVEIPTSLPVGIGEVNPFDRFLEDFCDGFSMQSEALIKLRNRWLDVNGVLAHFAGLPRRIVLRATRVYFTIQRQQLEPTALRSPLAQALKLEQLTRSFLLAESKPLHWPIFAAEVKQMQHLDIPFFTHLIDADALQLGGLEQELPGFIQTSGLAAAYERLRNLDTDEIAFQLRLIRGAVEARELHTTPESSPTLPPPATPEALMSSSAETSLEAAKRIAHRLLELAIRDSQGQVEWLGMDLGADGESFSFGPVGLSLYGGSIGIAHLLQRLQAQQVSLMDADAIQTAILQPLVGLVDQPSDDGRRRWWRDQPLGLSGCGGTLLALTLQGEQAMANSLLAAALPRFIEADQQLDLIGGCAGLIGSLVQLGTESALQLALRAGDHLIAQQNEEGAWSSSSSQPGLLGFSHGTAGYAAALAHLHAFSADERYRTAAAAALAYERARFNKDAGNWPDYRSIGRDSDSDEPSFMASWCHGAPGIALGRACLWGTALWDEECTKEIGIGLQTTAAVSSVSTDHLCCGSLGLMVLLEMLSAGPWPIDNQLRSHCQDVAFQYRLQALQRCSAEPIKLRCFGTKEGLLVLPGFFTGLSGMGLALLEDDPSRAVVSQLISAGLWPTESASGSGSGSGSGSGSGSGSGSTSGSGSGSAMSEEQLKAFIAKVQADTSLQEQLKAEGADVVAIAKAAGFTITTEDLNSHRQNLTDDELEGVAGG
modifications: Enzyme-Leader-Fusion
Consider B3, for which the “output titre (number of phages eluted at the end of the round)” value is 2.7e6 with Human Plasma Kallikrein [3] (R1, 100 nM kallikrein); 2.7e5 with Human Plasma Kallikrein [3] (R2, 33 nM kallikrein); 2.7e4 in the series with Human Plasma Kallikrein [3] (R3, 0 nM kallikrein); 9.5e5 with Human Plasma Kallikrein [3] (R3, 9.75 nM kallikrein). Also, in the series with Human Plasma Kallikrein [3] (R3), the “difference in titre using 9.75 nM kallikrein and using 0 nM kallikrein” value worked out at 36 fold.
